The results in this text go back to US20230167164A1 (IMMUNOWAKE, published 2023).

Numbering of substitutions follows the chain as printed. Numbers in names are those of the source.

Usually Kd stands for the free concentration of one partner at which half of the binding sites on the other are occupied at equilibrium, for simple one-to-one binding. High values mean lower affinity, low ones higher affinity.

First the molecules themselves.
T1: mouse PD-1 (mouse, UniProt Q02242 25-167, limits assumed)
T1 construct: also called mPD-1
T1 sequence (looked up): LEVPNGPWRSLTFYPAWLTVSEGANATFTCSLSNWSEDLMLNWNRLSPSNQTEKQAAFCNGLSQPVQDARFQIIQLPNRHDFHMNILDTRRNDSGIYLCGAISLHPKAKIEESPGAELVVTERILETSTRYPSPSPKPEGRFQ

B1: Fab-IL-23(WT)-Fc-CD4 Ab (other)
heavy 1: QVQLQQSGPEVVKPGASVKMSCKASGYTFTSYVIHWVRQKPGQGLDWIGYINPYNDGTDYDEKFKGKATLTSDTSTSTAYMELSSLRSEDTAVYYCAREKDNYATGAWFAYWGQGTLVTVSSASTKGPSVFPLAPSSKSTSGGTAALGCLVKDYFPEPVTVSWNSGALTSGVHTFPAVLQSSGLYSLSSVVTVPSSSLGTQTYICNVNHKPSNTKVDKKVEPKSCDKPGSGIWELKKDVYVVELDWYPDAPGEMVVLTCDTPEEDGITWTLDQSSEVLGSGKTLTIQVKEFGDAGQYTCHKGGEVLSHSLLLLHKKEDGIWSTDILKDQKEPKNKTFLRCEAKNYSGRFTCWWLTTISTDLTFSVKSSRGSSDPQGVTCGAATLSAERVRGDNKEYEYSVECQEDSACPAAEESLPIEVMVDAVHKLKYENYTSSFFIRDIIKPDPPKNLQLKPLKNSRQVEVSWEYPDTWSTPHSYFSLTFCVQVQGKSKREKKDRVFTDKTSATVICRKNASISVRAQDRYYSSSWSEWASVPCSGGGGSGGGGSGGGGSGGGGSGRAVPGGSSPAWTQCQQLSQKLCTLAWSAHPLVGHMDLREEGDEETTNDVPHIQCGDGCDPQGLRDNSQFCLQRIHQGLIFYEKLLGSDIFTGEPSLLPDSPVGQLHASLLGLSQLLQPEGHHWETQQIPSLSPSQPWQRLLLRFKILRSLQAFVAVAARVFAHGAATLSPDKTHTCPPCPAPEDEGGPSVFLFPPKPKDTLMISRTPEVTCVVVDVSHEDPEVKFNWYVDGVEVHNAKTKPREEQYNSTYRVVSVLTVLHQDWLNGKEYKCKVSNKALPAPIEKTISKAKGQPREPQVYVYPPSREEMTKNQVSLTCLVKGFYPSDIAVEWESNGQPENNYKTTPPVLDEDGSFALVSKLTVDKSRWQQGNVFSCSVMHEALHNHYTQKSLSLSPGK
heavy 2: QVQLQQSGPEVVKPGASVKMSCKASGYTFTSYVIHWVRQKPGQGLDWIGYINPYNDGTDYDEKFKGKATLTSDTSTSTAYMELSSLRSEDTAVYYCAREKDNYATGAWFAYWGQGTLVTVSSASTKGPSVFPLAPSSKSTSGGTAALGCLVKDYFPEPVTVSWNSGALTSGVHTFPAVLQSSGLYSLSSVVTVPSSSLGTQTYICNVNHKPSNTKVDKKVEPKSCDKTHTCPPCPAPEKKGGPSVFLFPPKPKDTLMISRTPEVTCVVVDVSHEDPEVKFNWYVDGVEVHNAKTKPREEQYNSTYRVVSVLTVLHQDWLNGKEYKCKVSNKALPAPIEKTISKAKGQPREPQVYVLPPSREEMTKNQVSLLCLVKGFYPSDIAVEWESNGQPENRYMTWPPVLDSDGSFFLYSKLTVDKSRWQQGNVFSCSVMHEALHNHYTQKSLSLSPGK
light: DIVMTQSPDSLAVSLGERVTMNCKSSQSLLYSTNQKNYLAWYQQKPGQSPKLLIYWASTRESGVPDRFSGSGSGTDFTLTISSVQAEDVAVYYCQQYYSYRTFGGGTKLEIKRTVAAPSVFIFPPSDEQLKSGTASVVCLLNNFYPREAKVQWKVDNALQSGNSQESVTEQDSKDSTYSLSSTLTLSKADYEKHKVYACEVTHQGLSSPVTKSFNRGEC
B2: Fab-IL-23(E59A/F60A)-Fc-CD4 Ab (other)
heavy 1: B1 heavy 1 with E290A, F291A
heavy 2: B1 heavy 2
light: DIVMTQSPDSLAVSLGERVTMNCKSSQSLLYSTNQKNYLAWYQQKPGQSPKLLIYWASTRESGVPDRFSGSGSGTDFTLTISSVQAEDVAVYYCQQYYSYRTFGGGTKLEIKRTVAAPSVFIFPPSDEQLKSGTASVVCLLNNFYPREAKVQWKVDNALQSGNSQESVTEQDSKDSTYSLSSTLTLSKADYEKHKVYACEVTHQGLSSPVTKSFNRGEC
B3: Fab-IL-23(F60A)-Fc-CD4 Ab (other)
heavy 1: B1 heavy 1 with F291A
heavy 2: B1 heavy 2
light: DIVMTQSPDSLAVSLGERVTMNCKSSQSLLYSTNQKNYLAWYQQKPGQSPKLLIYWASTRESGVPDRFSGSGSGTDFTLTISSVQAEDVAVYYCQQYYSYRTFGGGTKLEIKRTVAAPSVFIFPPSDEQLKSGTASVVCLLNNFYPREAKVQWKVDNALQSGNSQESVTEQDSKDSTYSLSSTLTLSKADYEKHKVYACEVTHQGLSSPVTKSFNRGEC
B4: PD-L2(mut1)-Fc (Fc fusion)
chain 1: LFTVTVPKELYIIEHGSNVTLECNFDTGSHVNLGAIVASLQKVENDTSPHRERATLLEEQLPLGKASFHIPQVQVRDEGQYQCIIIYGVAWDYKYLTLKVKASYRKINTHILKVPETDEVELTCQATGYPLAEVSWPNVSVPANTSHSRTPEGLYQVTSVLRLKPPPGRNFSCVFWNTHVRELTLASIDLQSQMEPRTHPTDKTHTCPPCPAPEDEGGPSVFLFPPKPKDTLMISRTPEVTCVVVDVSHEDPEVKFNWYVDGVEVHNAKTKPREEQYNSTYRVVSVLTVLHQDWLNGKEYKCKVSNKALPAPIEKTISKAKGQPREPQVYVYPPSREEMTKNQVSLTCLVKGFYPSDIAVEWESNGQPENNYKTTPPVLDEDGSFALVSKLTVDKSRWQQGNVFSCSVMHEALHNHYTQKSLSLSPGK
chain 2: B4 chain 1 with D215K, E216K, Y332L, T347L, N371R, K373M, T375W, E381S, A386F, V388Y
notes: also called T56V
B5: PD-L2(mut2)-Fc (Fc fusion)
chain 1: B4 chain 1 with V37T, S39V
chain 2: LFTVTVPKELYIIEHGSNVTLECNFDTGSHVNLGAITAVLQKVENDTSPHRERATLLEEQLPLGKASFHIPQVQVRDEGQYQCIIIYGVAWDYKYLTLKVKASYRKINTHILKVPETDEVELTCQATGYPLAEVSWPNVSVPANTSHSRTPEGLYQVTSVLRLKPPPGRNFSCVFWNTHVRELTLASIDLQSQMEPRTHPTDKTHTCPPCPAPEKKGGPSVFLFPPKPKDTLMISRTPEVTCVVVDVSHEDPEVKFNWYVDGVEVHNAKTKPREEQYNSTYRVVSVLTVLHQDWLNGKEYKCKVSNKALPAPIEKTISKAKGQPREPQVYVLPPSREEMTKNQVSLLCLVKGFYPSDIAVEWESNGQPENRYMTWPPVLDSDGSFFLYSKLTVDKSRWQQGNVFSCSVMHEALHNHYTQKSLSLSPGK
notes: also called PD-L2(S58V)
B6: PD-L2(mut3)-Fc (Fc fusion)
chain 1: B4 chain 1 with V37T, Q41L
chain 2: B5 chain 2 with V39S, Q41L
notes: also called Q60L
B7: PD-L2(mut4)-Fc (Fc fusion)
chain 1: B4 chain 1 with S39V, Q41L
chain 2: B5 chain 2 with T37V, Q41L
notes: also called PD-L2(T56V/S58V/Q60L)
B8: anti-PD-1 antibody HC-CDR3(D100G) (antibody, IgG1, V domains shown)
VH: QVQLVESGGGVVQPGRSLRLDCKASGITFSNSGMHWVRQAPGKGLEWVAVIWYDGSKRYYADSVKGRFTISRDNSKNTLFLQMNSLRAEDTAVYYCATNGDYWGQGTLVTVSS
VL: EIVLTQSPATLSLSPGERATLSCRASQSVSSYLAWYQQKPGQAPRLLIYDASNRATGIPARFSGSGSGTDFTLTISSLEPEDFAVYYCQQSSNWPRTFGQGTKVEIKR
notes: heterodimeric IgG1 as the WT antibody
B9: anti-PD-1 antibody HC-CDR3(D100R) (antibody, IgG1, V domains shown)
VH: B8 VH with G100R
VL: B8 VL
notes: as for B8
B10: anti-PD-1 antibody HC-CDR3(D100N) (antibody, IgG1, V domains shown)
VH: B8 VH with G100N
VL: B8 VL
notes: as for B8
B11: anti-PD-1 antibody HC-CDR3(N99G) (antibody, IgG1, V domains shown)
VH: B8 VH with N99G, G100D
VL: B8 VL
notes: as for B8
B12: Fab-IL-12(WT)-Fc-CD8 Ab (other)
heavy 1: EVQLQQSGPELVKPGASVKMSCKASGYTFTDYYMKWVKQSHGKSLEWIGHINPNNDDTFYTQKFKGRATLTVDKSSSTAYMQLNSLTSEDSAVYYCVRDDYDGGWFAYWGQGTLVTVSSASTKGPSVFPLAPSSKSTSGGTAALGCLVKDYFPEPVTVSWNSGALTSGVHTFPAVLQSSGLYSLSSVVTVPSSSLGTQTYICNVNHKPSNTKVDKKVEPKSCDKPGSGIWELKKDVYVVELDWYPDAPGEMVVLTCDTPEEDGITWTLDQSSEVLGSGKTLTIQVKEFGDAGQYTCHKGGEVLSHSLLLLHKKEDGIWSTDILKDQKEPKNKTFLRCEAKNYSGRFTCWWLTTISTDLTFSVKSSRGSSDPQGVTCGAATLSAERVRGDNKEYEYSVECQEDSACPAAEESLPIEVMVDAVHKLKYENYTSSFFIRDIIKPDPPKNLQLKPLKNSRQVEVSWEYPDTWSTPHSYFSLTFCVQVQGKSKREKKDRVFTDKTSATVICRKNASISVRAQDRYYSSSWSEWASVPCSGGGGSGGGGSGGGGSGGGGSGRNLPVATPDPGMFPCLHHSQNLLRAVSNMLQKARQTLEFYPCTSEEIDHEDITKDKTSTVEACLPLELTKNESCLNSRETSFITNGSCLASRKTSFMMALCLSSIYEDLKMYQVEFKTMNAKLLMDPKRQIFLDQNMLAVIDELMQALNFNSETVPQKSSLEEPDFYKTKIKLCILLHAFRIRAVTIDRVMSYLNASDKTHTCPPCPAPEDEGGPSVFLFPPKPKDTLMISRTPEVTCVVVDVSHEDPEVKFNWYVDGVEVHNAKTKPREEQYNSTYRVVSVLTVLHQDWLNGKEYKCKVSNKALPAPIEKTISKAKGQPREPQVYVYPPSREEMTKNQVSLTCLVKGFYPSDIAVEWESNGQPENNYKTTPPVLDEDGSFALVSKLTVDKSRWQQGNVFSCSVMHEALHNHYTQKSLSLSPGK
heavy 2: EVQLQQSGPELVKPGASVKMSCKASGYTFTDYYMKWVKQSHGKSLEWIGHINPNNDDTFYTQKFKGRATLTVDKSSSTAYMQLNSLTSEDSAVYYCVRDDYDGGWFAYWGQGTLVTVSSASTKGPSVFPLAPSSKSTSGGTAALGCLVKDYFPEPVTVSWNSGALTSGVHTFPAVLQSSGLYSLSSVVTVPSSSLGTQTYICNVNHKPSNTKVDKKVEPKSCDKTHTCPPCPAPEKKGGPSVFLFPPKPKDTLMISRTPEVTCVVVDVSHEDPEVKFNWYVDGVEVHNAKTKPREEQYNSTYRVVSVLTVLHQDWLNGKEYKCKVSNKALPAPIEKTISKAKGQPREPQVYVLPPSREEMTKNQVSLLCLVKGFYPSDIAVEWESNGQPENRYMTWPPVLDSDGSFFLYSKLTVDKSRWQQGNVFSCSVMHEALHNHYTQKSLSLSPGK
light: DIQMTQTTSSLSASLGDRVTISCRASQDINNYLNWYQQKSDGTIKLLIYYTSRSYSGVPSRFSGSGSGTDYSLTISNRRQEDIATYFCQQGKTLPWTFGGGTKLEIKRTVAAPSVFIFPPSDEQLKSGTASVVCLLNNFYPREAKVQWKVDNALQSGNSQESVTEQDSKDSTYSLSSTLTLSKADYEKHKVYACEVTHQGLSSPVTKSFNRGEC
B13: Fab-IL-12(E59A)-Fc-CD8 Ab (other)
heavy 1: B12 heavy 1 with E287A
heavy 2: B12 heavy 2
light: B12 light

The first test deals with IL-23 receptor complex (UniProt P42701 24-662; Q5VWK5 24-629, limits assumed). Nature of the test: cell-based or functional assay.
Sequence of IL-23 receptor complex (Q5VWK5 24-629 limits assumed, chain 2 of 2, other chains not shown): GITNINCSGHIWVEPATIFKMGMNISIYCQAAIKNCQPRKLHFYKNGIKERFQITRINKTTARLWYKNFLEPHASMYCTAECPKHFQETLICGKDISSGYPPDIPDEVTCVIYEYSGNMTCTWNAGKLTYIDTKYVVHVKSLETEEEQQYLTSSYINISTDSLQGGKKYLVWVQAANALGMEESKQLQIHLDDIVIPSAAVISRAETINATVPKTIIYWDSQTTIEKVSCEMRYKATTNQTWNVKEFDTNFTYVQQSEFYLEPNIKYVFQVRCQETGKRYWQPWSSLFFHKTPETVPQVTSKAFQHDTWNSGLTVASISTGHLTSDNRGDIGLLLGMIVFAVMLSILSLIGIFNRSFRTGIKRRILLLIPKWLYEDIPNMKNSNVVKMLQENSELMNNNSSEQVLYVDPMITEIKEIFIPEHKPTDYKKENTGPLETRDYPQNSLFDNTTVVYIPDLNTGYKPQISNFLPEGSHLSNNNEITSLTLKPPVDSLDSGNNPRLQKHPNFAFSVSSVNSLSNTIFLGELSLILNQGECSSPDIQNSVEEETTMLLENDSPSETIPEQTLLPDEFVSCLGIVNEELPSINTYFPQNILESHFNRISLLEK
In the case of B1, the “IFN-γ release, % of rIL-23, activated CD8+ T cells” value came out at 21%.
As to B2, the “IFN-γ release, % of rIL-23, activated CD8+ T cells” value is 0%.
On to B3, for which the “IFN-γ release, % of rIL-23, activated CD8+ T cells” value came to 1.5%.

The target of the next test is T1, mouse PD-1. The experiment in a line: PD-L2-Fc format, calibrated on PD-L2(wt)-Fc binding affinity.
As to B4, binding was put at a Kd of 430 nM.
Same read-out and setting: under B5 stands 230 nM; under B6, 320 nM; under B7, 220 nM.

The target in the next test is T2, human PD-1 (human, UniProt Q15116 25-167, limits assumed).
T2 construct: nivolumab is called an anti-human PD-1 antibody; also called hPD-1
T2 sequence (Q15116 25-167 limits assumed): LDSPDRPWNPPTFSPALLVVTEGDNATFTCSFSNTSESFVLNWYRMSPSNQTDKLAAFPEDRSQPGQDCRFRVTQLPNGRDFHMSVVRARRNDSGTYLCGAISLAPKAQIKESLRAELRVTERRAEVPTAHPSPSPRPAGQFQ
The description is as above.
B4 gave a Kd of 520 nM.
B5 had a Kd of 350 nM.
Molecule B6 displayed a Kd of 490 nM.
Still for that read-out and setting: under B7 stands 255 nM.

A further test deals with T2, human PD-1. The experiment in a line: Biacore and cell-based assays, calibrated by wildtype nivolumab binding affinity. (In general: SPR reads the build-up and loss of mass on a sensor chip optically.)
Regarding B8, the affinity, expressed as Kd, was 130 nM.
B9 displayed a Kd of 910 nM.
Take B10: the Kd stood at 25 nM.
For the molecule B11, binding was put at a Kd of 2300 nM. Against the preceding molecule, the Kd is about 92-fold higher.

Another test has as its target T3, human CD4 on cells (human, UniProt P01730 26-458).
T3 construct: whole, on cells; also called CD4+ T cells; HEK-CD4-IFN-γ cells
Nature of the test: FACS on CD4+ T cells.
With B12, the binding result is reported as “no binding”.
Still for that read-out and setting: with B13 the entry was “no binding”.

In another test the target is T4, CD8 on CD8+ T cells (human, UniProt P01732 22-235).
T4 construct: whole, on cells
T4 sequence (P01732 22-235): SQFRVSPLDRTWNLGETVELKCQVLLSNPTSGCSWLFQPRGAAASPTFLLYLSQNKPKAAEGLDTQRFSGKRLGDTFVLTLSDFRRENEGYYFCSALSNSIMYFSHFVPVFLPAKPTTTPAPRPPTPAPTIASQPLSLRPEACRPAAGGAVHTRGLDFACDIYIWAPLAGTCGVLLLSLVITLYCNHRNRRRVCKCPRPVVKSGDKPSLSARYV
The experiment in a line: FACS on CD8+ T cells.
For B1, the binding result is “no binding”.
Consider B2, for which the binding result is “no binding”.

The target in the next test is human IL-12 receptor complex (human, UniProt P42701 24-662; Q99665 24-862). The experiment in a line: cell-based or functional assay.
Sequence of human IL-12 receptor complex (Q99665 24-862, chain 2 of 2, other chains not shown): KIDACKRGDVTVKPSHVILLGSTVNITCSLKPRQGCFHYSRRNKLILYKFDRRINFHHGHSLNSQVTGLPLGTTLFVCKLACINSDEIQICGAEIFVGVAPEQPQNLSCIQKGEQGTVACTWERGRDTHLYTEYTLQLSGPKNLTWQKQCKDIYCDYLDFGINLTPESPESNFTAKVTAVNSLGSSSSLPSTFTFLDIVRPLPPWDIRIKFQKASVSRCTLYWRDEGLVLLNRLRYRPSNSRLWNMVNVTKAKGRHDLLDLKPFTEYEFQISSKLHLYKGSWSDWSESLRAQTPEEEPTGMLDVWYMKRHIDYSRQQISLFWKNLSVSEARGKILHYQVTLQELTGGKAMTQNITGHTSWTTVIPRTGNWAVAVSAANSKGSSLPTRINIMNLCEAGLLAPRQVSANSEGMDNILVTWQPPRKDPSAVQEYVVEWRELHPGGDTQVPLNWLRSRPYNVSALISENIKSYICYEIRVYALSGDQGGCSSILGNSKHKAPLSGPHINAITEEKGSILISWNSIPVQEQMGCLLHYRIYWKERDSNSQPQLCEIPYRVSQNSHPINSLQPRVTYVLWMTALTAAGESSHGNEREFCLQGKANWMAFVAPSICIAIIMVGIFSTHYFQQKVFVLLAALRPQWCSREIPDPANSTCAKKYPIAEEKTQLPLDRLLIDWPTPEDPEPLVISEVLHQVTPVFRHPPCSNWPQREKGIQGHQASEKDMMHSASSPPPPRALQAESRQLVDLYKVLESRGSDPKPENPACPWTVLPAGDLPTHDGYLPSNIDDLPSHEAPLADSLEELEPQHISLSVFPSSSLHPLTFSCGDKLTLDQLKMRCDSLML
As for B12, the “IFN-γ release, % of rIL-12, activated CD4+ T cells” value worked out at 21%.
Turning to B13, the “IFN-γ release, % of rIL-12, activated CD4+ T cells” value stood at 2.1%.
